Laboratory results taken from patent publication US20250215083A1 (JIANGSU HENGRUI PHARMACEUTICALS, published 2025).

Experiments:
hIL5 = hIL5 (human, UniProt P05113 20-134); test: ELISA per WO2021139758 Test Example 4
hTSLP = hTSLP (human, UniProt Q969D9 29-159); test: ELISA per WO2021139758 Test Example 4

EC50 (hIL5)	EC50 (hTSLP)	Binder
37 nM	2.88 nM	HJ-6 (bispecific antibody) chain 1: not shown chain 2: DIQMTQSPSSVSASVGDRVTITCRASQDIANYLSWYQQKPGKSPKLLIYGTSNLEVGVPSRFSGSRSGTDFTLTISSLQPEDFATYYCLQDKEFPRTFGGGTKVEIKGGGGSSGAPRFLTCPKASVVSVGKDATLSSQIVGNPFPQVSWEKDKQPVTAGVRFRLAQDGDLYRLKILDLQLSDSGQYVSRARNAHGEAFACLGLQVDAEA chain 3: EVQLVQSGAEVKKPGSSVKVSCKASGYTFSNYLIEWVRQAPGQGLEWIGVIDPGVGDTNYNENFKGRATLTADKSTSTAYIELSSLRSEDTAVYYCAREDNTGTAFDYWGQGTTVTVSSASTKGPSVFPLAPSSKSTSGGTAALGCLVKDYFPEPVTVSWNSGALTSGVHTFPAVLQSSGLYSLSSVVTVPSSSLGTQTYICNVNHKPSNTKVDKKVEPKSCDKTHTCPPCPAPEAAGGPSVFLFPPKPKDTLMISRTPEVTCVVVDVSHEDPEVKFNWYVDGVEVHNAKTKPREEQYNSTYRVVSVLTVLHQDWLNGKEYKCKVSNKALPAPIEKTISKAKGQPREPQVCTLPPSREEMTKNQVSLSCAVKGFYPSDIAVEWESNGQPENNYKTTPPVLDSDGSFFLVSKLTVDKSRWQQGNVFSCSVMHEALHNHYTQKSLSLSPGK chain 4: SIVMTQTPLSLSVTPGQPASISCKASQSVSSDVTWYLQKPGQSPQLLIYYVSEHYTGVPDRFSGSGYGTDFTLKISRVEAEDVGVYYCQQHHRFPLTFGQGTKLEIKRTVAAPSVFIFPPSDEQLKSGTASVVCLLNNFYPREAKVQWKVDNALQSGNSQESVTEQDSKDSTYSLSSTLTLSKADYEKHKVYACEVTHQGLSSPVTKSFNRGEC
20.8 nM	3.17 nM	HJ-10 (bispecific antibody) chain 1: not shown chain 2: DIQMTQSPSSVSASVGDRVTITCRASQDIANYLSWYQQKPGKSPKLLIYGTSNLEVGVPSRFSGSRSGTDFTLTISSLQPEDFATYYCLQDKEFPRTFGGGTKVEIKRTVASSGAPRFLTRPKASVVSVGKDATLSCQIVGNPFPQVSWEKDKQPVTAGVRFRLAQDGDLYRLKILDLQLSDSGQYVCRARNAHGEAFACLGLQVDAEA chain 3: EVQLVQSGAEVKKPGSSVKVSCKASGYTFSNYLIEWVRQAPGQGLEWIGVIDPGVGDTNYNENFKGRATLTADKSTSTAYIELSSLRSEDTAVYYCAREDNTGTAFDYWGQGTTVTVSSASTKGPSVFPLAPSSKSTSGGTAALGCLVKDYFPEPVTVSWNSGALTSGVHTFPAVLQSSGLYSLSSVVTVPSSSLGTQTYICNVNHKPSNTKVDKKVEPKSCDKTHTCPPCPAPEAAGGPSVFLFPPKPKDTLMISRTPEVTCVVVDVSHEDPEVKFNWYVDGVEVHNAKTKPREEQYNSTYRVVSVLTVLHQDWLNGKEYKCKVSNKALPAPIEKTISKAKGQPREPQVCTLPPSREEMTKNQVSLSCAVKGFYPSDIAVEWESNGQPENNYKTTPPVLDSDGSFFLVSKLTVDKSRWQQGNVFSCSVMHEALHNHYTQKSLSLSPGK chain 4: SIVMTQTPLSLSVTPGQPASISCKASQSVSSDVTWYLQKPGQSPQLLIYYVSEHYTGVPDRFSGSGYGTDFTLKISRVEAEDVGVYYCQQHHRFPLTFGQGTKLEIKRTVAAPSVFIFPPSDEQLKSGTASVVCLLNNFYPREAKVQWKVDNALQSGNSQESVTEQDSKDSTYSLSSTLTLSKADYEKHKVYACEVTHQGLSSPVTKSFNRGEC
10.9 nM	3.18 nM	HJ-9 (bispecific antibody) chain 1: not shown chain 2: DIQMTQSPSSVSASVGDRVTITCRASQDIANYLSWYQQKPGKSPKLLIYGTSNLEVGVPSRFSGSRSGTDFTLTISSLQPEDFATYYCLQDKEFPRTFGGGTKVEIKRTVASSGAPRFLTCPKASVVSVGKDATLSSQIVGNPFPQVSWEKDKQPVTAGVRFRLAQDGDLYRLKILDLQLSDSGQYVSRARNAHGEAFACLGLQVDAEA chain 3: EVQLVQSGAEVKKPGSSVKVSCKASGYTFSNYLIEWVRQAPGQGLEWIGVIDPGVGDTNYNENFKGRATLTADKSTSTAYIELSSLRSEDTAVYYCAREDNTGTAFDYWGQGTTVTVSSASTKGPSVFPLAPSSKSTSGGTAALGCLVKDYFPEPVTVSWNSGALTSGVHTFPAVLQSSGLYSLSSVVTVPSSSLGTQTYICNVNHKPSNTKVDKKVEPKSCDKTHTCPPCPAPEAAGGPSVFLFPPKPKDTLMISRTPEVTCVVVDVSHEDPEVKFNWYVDGVEVHNAKTKPREEQYNSTYRVVSVLTVLHQDWLNGKEYKCKVSNKALPAPIEKTISKAKGQPREPQVCTLPPSREEMTKNQVSLSCAVKGFYPSDIAVEWESNGQPENNYKTTPPVLDSDGSFFLVSKLTVDKSRWQQGNVFSCSVMHEALHNHYTQKSLSLSPGK chain 4: SIVMTQTPLSLSVTPGQPASISCKASQSVSSDVTWYLQKPGQSPQLLIYYVSEHYTGVPDRFSGSGYGTDFTLKISRVEAEDVGVYYCQQHHRFPLTFGQGTKLEIKRTVAAPSVFIFPPSDEQLKSGTASVVCLLNNFYPREAKVQWKVDNALQSGNSQESVTEQDSKDSTYSLSSTLTLSKADYEKHKVYACEVTHQGLSSPVTKSFNRGEC
18.7 nM	3.33 nM	HJ-8 (bispecific antibody) chain 1: not shown chain 2: DIQMTQSPSSVSASVGDRVTITCRASQDIANYLSWYQQKPGKSPKLLIYGTSNLEVGVPSRFSGSRSGTDFTLTISSLQPEDFATYYCLQDKEFPRTFGGGTKVEIKRTVASSGAPRFLTRPKASVVSVGKDATLSSQIVGNPFPQVSWEKDKQPVTAGVRFRLAQDGDLYRLKILDLQLSDSGQYVSRARNAHGEAFACLGLQVDAEA chain 3: EVQLVQSGAEVKKPGSSVKVSCKASGYTFSNYLIEWVRQAPGQGLEWIGVIDPGVGDTNYNENFKGRATLTADKSTSTAYIELSSLRSEDTAVYYCAREDNTGTAFDYWGQGTTVTVSSASTKGPSVFPLAPSSKSTSGGTAALGCLVKDYFPEPVTVSWNSGALTSGVHTFPAVLQSSGLYSLSSVVTVPSSSLGTQTYICNVNHKPSNTKVDKKVEPKSCDKTHTCPPCPAPEAAGGPSVFLFPPKPKDTLMISRTPEVTCVVVDVSHEDPEVKFNWYVDGVEVHNAKTKPREEQYNSTYRVVSVLTVLHQDWLNGKEYKCKVSNKALPAPIEKTISKAKGQPREPQVCTLPPSREEMTKNQVSLSCAVKGFYPSDIAVEWESNGQPENNYKTTPPVLDSDGSFFLVSKLTVDKSRWQQGNVFSCSVMHEALHNHYTQKSLSLSPGK chain 4: SIVMTQTPLSLSVTPGQPASISCKASQSVSSDVTWYLQKPGQSPQLLIYYVSEHYTGVPDRFSGSGYGTDFTLKISRVEAEDVGVYYCQQHHRFPLTFGQGTKLEIKRTVAAPSVFIFPPSDEQLKSGTASVVCLLNNFYPREAKVQWKVDNALQSGNSQESVTEQDSKDSTYSLSSTLTLSKADYEKHKVYACEVTHQGLSSPVTKSFNRGEC
9.46 nM	3 nM	HJ-11 (bispecific antibody) chain 1: not shown chain 2: DIQMTQSPSSVSASVGDRVTITCRASQDIANYLSWYQQKPGKSPKLLIYGTSNLEVGVPSRFSGSRSGTDFTLTISSLQPEDFATYYCLQDKEFPRTFGGGTKVEIKRTVASSGCPRFLTRPKASVVSVGKDATLSCQIVGNPFPQVSWEKDKQPVTAGVRFRLAQDGDLYRLKILDLQLSDSGQYVCRARNAHGEAFACLGLQVDAEA chain 3: EVQLVQSGAEVKKPGSSVKVSCKASGYTFSNYLIEWVRQAPGQGLEWIGVIDPGVGDTNYNENFKGRATLTADKSTSTAYIELSSLRSEDTAVYYCAREDNTGTAFDYWGQGTTVTVSSASTKGPSVFPLAPSSKSTSGGTAALGCLVKDYFPEPVTVSWNSGALTSGVHTFPAVLQSSGLYSLSSVVTVPSSSLGTQTYICNVNHKPSNTKVDKKVEPKSCDKTHTCPPCPAPEAAGGPSVFLFPPKPKDTLMISRTPEVTCVVVDVSHEDPEVKFNWYVDGVEVHNAKTKPREEQYNSTYRVVSVLTVLHQDWLNGKEYKCKVSNKALPAPIEKTISKAKGQPREPQVCTLPPSREEMTKNQVSLSCAVKGFYPSDIAVEWESNGQPENNYKTTPPVLDSDGSFFLVSKLTVDKSRWQQGNVFSCSVMHEALHNHYTQKSLSLSPGK chain 4: SIVMTQTPLSLSVTPGQPASISCKASQSVSSDVTWYLQKPGQSPQLLIYYVSEHYTGVPDRFSGSGYGTDFTLKISRVEAEDVGVYYCQQHHRFPLTFGQGTKLEIKRTVAAPSVFIFPPSDEQLKSGTASVVCLLNNFYPREAKVQWKVDNALQSGNSQESVTEQDSKDSTYSLSSTLTLSKADYEKHKVYACEVTHQGLSSPVTKSFNRGEC
17.7 nM	2.18 nM	HJ-7 (bispecific antibody) chain 1: not shown chain 2: DIQMTQSPSSVSASVGDRVTITCRASQDIANYLSWYQQKPGKSPKLLIYGTSNLEVGVPSRFSGSRSGTDFTLTISSLQPEDFATYYCLQDKEFPRTFGGGTKVEIKGGGGSSGAPRFLTRPKASVVSVGKDATLSCQIVGNPFPQVSWEKDKQPVTAGVRFRLAQDGDLYRLKILDLQLSDSGQYVCRARNAHGEAFACLGLQVDAEA chain 3: EVQLVQSGAEVKKPGSSVKVSCKASGYTFSNYLIEWVRQAPGQGLEWIGVIDPGVGDTNYNENFKGRATLTADKSTSTAYIELSSLRSEDTAVYYCAREDNTGTAFDYWGQGTTVTVSSASTKGPSVFPLAPSSKSTSGGTAALGCLVKDYFPEPVTVSWNSGALTSGVHTFPAVLQSSGLYSLSSVVTVPSSSLGTQTYICNVNHKPSNTKVDKKVEPKSCDKTHTCPPCPAPEAAGGPSVFLFPPKPKDTLMISRTPEVTCVVVDVSHEDPEVKFNWYVDGVEVHNAKTKPREEQYNSTYRVVSVLTVLHQDWLNGKEYKCKVSNKALPAPIEKTISKAKGQPREPQVCTLPPSREEMTKNQVSLSCAVKGFYPSDIAVEWESNGQPENNYKTTPPVLDSDGSFFLVSKLTVDKSRWQQGNVFSCSVMHEALHNHYTQKSLSLSPGK chain 4: SIVMTQTPLSLSVTPGQPASISCKASQSVSSDVTWYLQKPGQSPQLLIYYVSEHYTGVPDRFSGSGYGTDFTLKISRVEAEDVGVYYCQQHHRFPLTFGQGTKLEIKRTVAAPSVFIFPPSDEQLKSGTASVVCLLNNFYPREAKVQWKVDNALQSGNSQESVTEQDSKDSTYSLSSTLTLSKADYEKHKVYACEVTHQGLSSPVTKSFNRGEC
